B1: Var004 (engineered variant of FHL-1) (designed binder)
chain: EDCNELPPRRNTEILTGSWSDQTYPEGTQAIYKCRPGYRSLGNVIMVCRKGEWVALNPLRKCQKRPCGHPGDTPFGTFTLTGGNVFEYGVKAVYTCNEGYQLLGEINYRECDTDGWTNDIPICEVVKCLPVTAPENGKIVSSAMEPDREYHFGQAVRFVCNSGYKIEGDEEMHCSDDGFWSKEKPKCVEISCKSPDVINGSPISQKIIYKENERFQYKCNMGYEYSERGDAVCTESGWRPLPSCEEKSCDNPYIPNGDYSPLRIKHRTGDEITYQCRNGFYPATRGNTAKCTSTGWIPAPRCTLKPCDYPDIKHGGLYHENMRRPYFPVAVGKYYSYYCDEHFETPSGSYWDHIHCTQDGWSPAVPCLRKCYFPYLENGYNQNYGRKFVQGKSIDVACHPGYALPKAQTTVTCMENGWSPTPRCIRVSGGGGSGGGGSGGGGSTLKPCDYPDIKHGGLYHENMRRPYFPVAVGKYYSYYCDEHFETPSGSYWDHIHCTQDGWSPAVPCLRKCYFPYLENGYNQNYGRKFVQGKSIDVACHPGYALPKAQTTVTCMENGWSPTPRCIRVSFTL
notes: Tested as purified protein or as CHO culture supernatant; also called FHL-1 engineered variant
B2: Factor H-like protein 1 (FHL-1) (other)
chain: EDCNELPPRRNTEILTGSWSDQTYPEGTQAIYKCRPGYRSLGNVIMVCRKGEWVALNPLRKCQKRPCGHPGDTPFGTFTLTGGNVFEYGVKAVYTCNEGYQLLGEINYRECDTDGWTNDIPICEVVKCLPVTAPENGKIVSSAMEPDREYHFGQAVRFVCNSGYKIEGDEEMHCSDDGFWSKEKPKCVEISCKSPDVINGSPISQKIIYKENERFQYKCNMGYEYSERGDAVCTESGWRPLPSCEEKSCDNPYIPNGDYSPLRIKHRTGDEITYQCRNGFYPATRGNTAKCTSTGWIPAPRCTLKPCDYPDIKHGGLYHENMRRPYFPVAVGKYYSYYCDEHFETPSGSYWDHIHCTQDGWSPAVPCLRKCYFPYLENGYNQNYGRKFVQGKSIDVACHPGYALPKAQTTVTCMENGWSPTPRCIRVSFTL
notes: Control protein, purified or as CHO culture supernatant; also called native FHL-1
B3: complement factor H (CFH) (other)
chain: EDCNELPPRRNTEILTGSWSDQTYPEGTQAIYKCRPGYRSLGNVIMVCRKGEWVALNPLRKCQKRPCGHPGDTPFGTFTLTGGNVFEYGVKAVYTCNEGYQLLGEINYRECDTDGWTNDIPICEVVKCLPVTAPENGKIVSSAMEPDREYHFGQAVRFVCNSGYKIEGDEEMHCSDDGFWSKEKPKCVEISCKSPDVINGSPISQKIIYKENERFQYKCNMGYEYSERGDAVCTESGWRPLPSCEEKSCDNPYIPNGDYSPLRIKHRTGDEITYQCRNGFYPATRGNTAKCTSTGWIPAPRCTLKPCDYPDIKHGGLYHENMRRPYFPVAVGKYYSYYCDEHFETPSGSYWDHIHCTQDGWSPAVPCLRKCYFPYLENGYNQNYGRKFVQGKSIDVACHPGYALPKAQTTVTCMENGWSPTPRCIRVKTCSKSSIDIENGFISESQYTYALKEKAKYQCKLGYVTADGETSGSITCGKDGWSAQPTCIKSCDIPVFMNARTKNDFTWFKLNDTLDYECHDGYESNTGSTTGSIVCGYNGWSDLPICYERECELPKIDVHLVPDRKKDQYKVGEVLKFSCKPGFTIVGPNSVQCYHFGLSPDLPICKEQVQSCGPPPELLNGNVKEKTKEEYGHSEVVEYYCNPRFLMKGPNKIQCVDGEWTTLPVCIVEESTCGDIPELEHGWAQLSSPPYYYGDSVEFNCSESFTMIGHRSITCIHGVWTQLPQCVAIDKLKKCKSSNLIILEEHLKNKKEFDHNSNIRYRCRGKEGWIHTVCINGRWDPEVNCSMAQIQLCPPPPQIPNSHNMTTTLNYRDGEKVSVLCQENYLIQEGEEITCKDGRWQSIPLCVEKIPCSQPPQIEHGTINSSRSSQESYAHGTKLSYTCEGGFRISEENETTCYMGKWSSPPQCEGLPCKSPPEISHGVVAHMSDSYQYGEEVTYKCFEGFGIDGPAIAKCLGEKWSHPPSCIKTDCLSLPSFENAIPMGEKKDVYKAGEQVTYTCATYYKMDGASNVTCINSRWTGRPTCRDTSCVNPPTVQNAYIVSRQMSKYPSGERVRYQCRSPYEMFGDEEVMCLNGNWTEPPQCKDSTGKCGPPPPIDNGDITSFPLSVYAPASSVEYQCQNLYQLEGNKRITCRNGQWSEPPKCLHPCVISREIMENYNIALRWTAKQKLYSRTGESVEFVCKRGYRLSSRSHTLRTTCWDGKLEYPTCAKR
notes: Purified CFH used as control

molecular target: T1, human C3b (human, UniProt P01024 749-1663; P01024 23-667); test: ELISA on C3b-coated plates, absorbance at 450 nm
T1 construct: Coated on ELISA plates
T1 sequence (P01024 749-1663, chain 1 of 2): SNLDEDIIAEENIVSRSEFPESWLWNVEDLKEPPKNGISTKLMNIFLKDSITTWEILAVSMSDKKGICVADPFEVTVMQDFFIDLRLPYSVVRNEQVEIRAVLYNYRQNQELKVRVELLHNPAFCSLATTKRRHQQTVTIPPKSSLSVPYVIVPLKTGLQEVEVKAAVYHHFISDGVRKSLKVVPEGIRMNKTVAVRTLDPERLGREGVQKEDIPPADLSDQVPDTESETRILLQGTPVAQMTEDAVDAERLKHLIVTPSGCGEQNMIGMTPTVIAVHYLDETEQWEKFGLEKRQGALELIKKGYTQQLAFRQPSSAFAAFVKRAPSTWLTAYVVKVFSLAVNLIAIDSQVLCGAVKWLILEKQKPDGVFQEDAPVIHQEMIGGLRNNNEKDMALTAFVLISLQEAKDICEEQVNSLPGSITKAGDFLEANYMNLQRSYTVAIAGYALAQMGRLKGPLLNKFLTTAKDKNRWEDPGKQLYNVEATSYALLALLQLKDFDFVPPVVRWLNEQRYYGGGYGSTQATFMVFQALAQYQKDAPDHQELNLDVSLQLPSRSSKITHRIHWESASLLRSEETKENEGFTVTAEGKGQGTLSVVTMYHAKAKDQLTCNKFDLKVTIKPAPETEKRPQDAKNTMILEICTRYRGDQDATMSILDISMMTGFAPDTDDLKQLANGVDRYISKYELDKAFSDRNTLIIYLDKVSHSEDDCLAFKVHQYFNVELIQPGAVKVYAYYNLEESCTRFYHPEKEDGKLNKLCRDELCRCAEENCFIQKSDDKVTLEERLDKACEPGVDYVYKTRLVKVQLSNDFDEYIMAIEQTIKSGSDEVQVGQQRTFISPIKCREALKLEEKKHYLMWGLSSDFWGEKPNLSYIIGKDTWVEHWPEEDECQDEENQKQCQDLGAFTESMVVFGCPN
T1 sequence (P01024 23-667, chain 2 of 2): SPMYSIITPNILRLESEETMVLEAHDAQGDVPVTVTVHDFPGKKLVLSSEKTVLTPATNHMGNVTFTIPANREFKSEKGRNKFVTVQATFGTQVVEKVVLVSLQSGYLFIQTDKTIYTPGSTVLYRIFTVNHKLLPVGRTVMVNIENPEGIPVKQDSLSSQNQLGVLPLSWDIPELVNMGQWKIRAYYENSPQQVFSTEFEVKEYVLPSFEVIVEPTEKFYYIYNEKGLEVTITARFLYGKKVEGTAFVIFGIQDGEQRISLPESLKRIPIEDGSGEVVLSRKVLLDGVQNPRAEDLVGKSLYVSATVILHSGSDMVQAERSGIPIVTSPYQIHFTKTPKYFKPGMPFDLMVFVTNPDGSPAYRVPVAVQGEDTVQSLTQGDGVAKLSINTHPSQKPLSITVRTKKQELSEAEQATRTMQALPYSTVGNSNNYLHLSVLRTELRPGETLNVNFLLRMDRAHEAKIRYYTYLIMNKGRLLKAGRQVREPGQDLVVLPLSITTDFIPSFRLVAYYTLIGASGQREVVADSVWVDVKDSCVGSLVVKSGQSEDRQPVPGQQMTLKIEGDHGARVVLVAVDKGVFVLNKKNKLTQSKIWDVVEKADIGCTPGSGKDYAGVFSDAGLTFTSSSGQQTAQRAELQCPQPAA
Experimental: A representative example of an FHL-1 engineered variant (e.g., a polypeptide of SEQ ID NO: 21) was compared with CFH and FHL-1 for C3b binding activity as presented in FIGS. 14A and 14B. […] In general, the data was derived from measuring binding on C3b coated plates via ELISA for test proteins (either as purified proteins or as culture supernatants from CHO cells transfected with expression vectors encoding test proteins). C3b binding activity was measured via absorbance at 450 nm. Mean+/−SEM absorbance values are shown with nonlinear sigmoidal 4PL fit. Of note, the FHL-1 engineered variant (e.g., Var 004, SEQ ID NO: 21) has increased C3b binding activity over native FHL-1.

Row | Binder | binding result
1 | B1 | binds
2 | B2 | binds
3 | B3 | binds

Reference: patent publication US20260116937A1 (CHARACTER BIOSCIENCES, published 2026)
